Measured values taken from the supplement of paper PMC9233669.
Fewer inactive variants are shown than the library holds.

Tests used:
biotinyl-Leu-oxazolone = assay: self-aminoacylation, catalytic enhancement (BLO) (fold over background); higher = more active; k-Seq, kA / k0A0; sequences stand for … in GGGAAUGGAUCCACAUCUACGAAUUC…UUCACUGCAGACUUGACGAAGCUG
In short: (§1)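 Each biotinyl-aminoacyl-oxazolone, at 2–1250 μM, was incubated with mutagenized RNA pools (0.43 μM) carrying a 21-nt variable region. The 50 μL reactions contained HEPES/NaCl/KCl/MgCl2/CaCl2 buffer with 5% acetonitrile at pH 6.9–7.0 and ran for 90 minutes at room temperature. After streptavidin capture, RNA was measured by qPCR in triplicate and by Illumina sequencing, and catalytic enhancement was calculated as median kA over the uncatalyzed rate from a pseudo-first-order fit of per-sequence fraction reacted.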

biotinyl-Val-oxazolone = assay: self-aminoacylation, catalytic enhancement (BVO) (fold over background); higher = more active; k-Seq, kA / k0A0; sequences stand for … in GGGAAUGGAUCCACAUCUACGAAUUC…UUCACUGCAGACUUGACGAAGCUG
In short: as §1

biotinyl-Met-oxazolone = assay: self-aminoacylation, catalytic enhancement (BMO) (fold over background); higher = more active; k-Seq, kA / k0A0; sequences stand for … in GGGAAUGGAUCCACAUCUACGAAUUC…UUCACUGCAGACUUGACGAAGCUG
In short: as §1

biotinyl-Ile-oxazolone = assay: self-aminoacylation, catalytic enhancement (BIO) (fold over background); higher = more active; k-Seq, kA / k0A0; sequences stand for … in GGGAAUGGAUCCACAUCUACGAAUUC…UUCACUGCAGACUUGACGAAGCUG
In short: as §1

biotinyl-Phe-oxazolone = assay: self-aminoacylation, catalytic enhancement (BFO) (fold over background); higher = more active; k-Seq, kA / k0A0; sequences stand for … in GGGAAUGGAUCCACAUCUACGAAUUC…UUCACUGCAGACUUGACGAAGCUG
In short: as §1

biotinyl-Trp-oxazolone = assay: self-aminoacylation, catalytic enhancement (BWO) (fold over background); higher = more active; k-Seq, kA / k0A0; sequences stand for … in GGGAAUGGAUCCACAUCUACGAAUUC…UUCACUGCAGACUUGACGAAGCUG
In short: as §1

Sequence | self-aminoacylation (biotinyl-Leu-oxazolone) | self-aminoacylation (biotinyl-Val-oxazolone) | self-aminoacylation (biotinyl-Met-oxazolone) | self-aminoacylation (biotinyl-Ile-oxazolone) | self-aminoacylation (biotinyl-Phe-oxazolone) | self-aminoacylation (biotinyl-Trp-oxazolone)
CCACACGUCAAGCAAUGGGUC [Fam1B.1 aminoacylation ribozyme variant] | 1.36 | 1.49 | 1.36 | 1.14 | 0.534 | 1.02
AUUGACCUAGGUCAUCGCGUG [Fam2.2 aminoacylation ribozyme variant] | 5.69 | 3.69 | 4.19 | 3.24 | 25 | 5.47
CUACUUAAAACAAUCGGUCAG [Fam1A.1 aminoacylation ribozyme variant] | 0.66 | 0.79 | 0.703 | 0.636 | 0.552 | 0.384
AUUACCCUGGUCAUCGACUUA [Fam2.1 aminoacylation ribozyme variant] | 0.544 | 0.818 | 0.636 | 0.596 | 0.425 | 0.414
AUUACCUUGGUCAUCCAGUGA [Fam2.1 aminoacylation ribozyme variant] | 4.83 | 2.84 | 4.51 | 3.16 | 22.5 | 5.48
AAGGUUGCUAAGAGUCGCAAG [Fam3.1 aminoacylation ribozyme variant] | 1.1 | 1.03 | 0.884 | 1.17 | 1.9 | 1.57
AUUACGCUGGUCACCGAGUGA [Fam2.1 aminoacylation ribozyme variant] | 7.46 | 4.31 | 6.73 | 3.71 | 47.5 | 7.92
AUUCACCUAGGUCAUAGGGUU [Fam2.2 aminoacylation ribozyme variant] | 0.676 | 0.804 | 0.827 | 0.918 | 0.392 | 0.959
CCACACUUAACGCAAUCGGUC [Fam1B.1 aminoacylation ribozyme variant] | 0.986 | 1.11 | 0.874 | 1.08 | 0.826 | 1.11
CUACUUCAAACUAUCGGUCUC [Fam1A.1 aminoacylation ribozyme variant] | 0.759 | 0.885 | 0.747 | 0.833 | 1.19 | 0.598
AAGUUUGCGAAUACUCGCAAG [Fam3.1 aminoacylation ribozyme variant] | 1.4 | 0.993 | 1.13 | 1.36 | 3.35 | 2.24
AAGUUUGCUGAUAGUCGCAAG [Fam3.1 aminoacylation ribozyme variant] | 0.866 | 0.952 | 0.906 | 0.979 | 1.68 | 1.02
AAUCACCGAGGUCAUCGGGUG [Fam2.2 aminoacylation ribozyme variant] | 6.88 | 5.33 | 5.14 | 5.03 | 67.7 | 7.72
AUUCACCUAGGUCAUCGGUUU [Fam2.2 aminoacylation ribozyme variant] | 1.28 | 1.41 | 1.19 | 1.19 | 1.09 | 0.984
AAGUUUGCUACUCGUCGCAAG [Fam3.1 aminoacylation ribozyme variant] | 0.958 | 1.04 | 0.922 | 0.823 | 0.598 | 1.31
CUUACCCAGGUCAUCGAGUGA [Fam2.1 aminoacylation ribozyme variant] | 4.56 | 3.6 | 4.94 | 3.04 | 4.25 | 5.54
GCACACUUCAAGCUAUCGGUC [Fam1B.1 aminoacylation ribozyme variant] | 1.35 | 1.48 | 1.36 | 1.48 | 1.47 | 1.81
AAGUUUGAUAAUAGGCGCAAG [Fam3.1 aminoacylation ribozyme variant] | 0.59 | 0.551 | 0.523 | 0.704 | 0.836 | 0.74
AUUAACCUAGGUCAUCGGGUA [Fam2.2 aminoacylation ribozyme variant] | 46.4 | 13.9 | 33.2 | 17.7 | 262 | 20.3
AUUCACCUAGGUUAUCGGGUG [Fam2.2 aminoacylation ribozyme variant] | 5.2 | 3.15 | 4.34 | 2.89 | 28 | 4.33
AUUCACCUUGGUCUUCGGGUG [Fam2.2 aminoacylation ribozyme variant] | 6.07 | 4.25 | 4.81 | 3.75 | 37.3 | 5.01
AUUCACCUUGGUCAUCGGGUU [Fam2.2 aminoacylation ribozyme variant] | 2.38 | 2.08 | 1.84 | 1.67 | 8.05 | 2.14
CUACUUCAAACAAUCCCUCUG [Fam1A.1 aminoacylation ribozyme variant] | 0.558 | 0.525 | 0.68 | 0.74 | 0.842 | 0.44
AUUAGCCUGGUCAUCGAGUUA [Fam2.1 aminoacylation ribozyme variant] | 1.27 | 1.24 | 1.41 | 1.36 | 1.15 | 0.867
GUUACCGUGGUCAUCGAGUGA [Fam2.1 aminoacylation ribozyme variant] | 10.6 | 5.58 | 9.15 | 5.33 | 55.3 | 10.1
AUUCACCUAGGUCUUCGAGUG [Fam2.2 aminoacylation ribozyme variant] | 3.65 | 2.13 | 2.99 | 2.03 | 9.5 | 3.26

Sequence | self-aminoacylation (biotinyl-Leu-oxazolone) | self-aminoacylation (biotinyl-Val-oxazolone) | self-aminoacylation (biotinyl-Met-oxazolone) | self-aminoacylation (biotinyl-Ile-oxazolone) | self-aminoacylation (biotinyl-Phe-oxazolone) | self-aminoacylation (biotinyl-Trp-oxazolone)
UUACUUCAAACAAUAGGUCUG [Fam1A.1 aminoacylation ribozyme variant] | 1.08 | 1.25 | 1.26 | 1.2 | 1.69 | 1.07
CCUCACUUCAAGCAAUCGUUC [Fam1B.1 aminoacylation ribozyme variant] | 0.604 | 0.637 | 0.473 | 0.664 | 1.29 | 0.754
AUGACCCUGGCCAUCGAGUGA [Fam2.1 aminoacylation ribozyme variant] | 7.68 | 3.66 | 5.04 | 3.03 | 32 | 6.4
AAGUUUGCUAAUGGACGCAAG [Fam3.1 aminoacylation ribozyme variant] | 0.83 | 0.576 | 0.604 | 0.591 | 1.18 | 0.56
CUACUUCGAACAAUCGGUCUG [Fam1A.1 aminoacylation ribozyme variant] | 0.614 | 0.684 | 0.618 | 0.623 | 0.684 | 0.566
UAGUGUGCUAAUAGUCGCAAG [Fam3.1 aminoacylation ribozyme variant] | 1.21 | 1.76 | 1.88 | 1.83 | 2.94 | 2.19
AUUCUCCUAGUUCAUCGGGUG [Fam2.2 aminoacylation ribozyme variant] | 5.88 | 3.46 | 4.59 | 3.84 | 32.7 | 5.28
CCACACUUCGAGCAAUCGCUC [Fam1B.1 aminoacylation ribozyme variant] | 1.71 | 2.62 | 2.13 | 1.98 | 5.11 | 2.71
AUUACCCUGGUCAUGGAGCGA [Fam2.1 aminoacylation ribozyme variant] | 1.72 | 1.29 | 1.59 | 1.27 | 3.2 | 1.32
CCACACUUCUAGCAAUCGUUC [Fam1B.1 aminoacylation ribozyme variant] | 0.558 | 1.01 | 0.511 | 0.767 | 1.04 | 0.481
CCACGCUUGAAGCAAUCGGUC [Fam1B.1 aminoacylation ribozyme variant] | 0.714 | 1.28 | 0.861 | 0.895 | 0.547 | 1.01
AUUCCCCAAGGUCAUCGGGUG [Fam2.2 aminoacylation ribozyme variant] | 31.1 | 14.8 | 27 | 15.9 | 218 | 20.9
UUGACCCUGGUCAUCGAGUGA [Fam2.1 aminoacylation ribozyme variant] | 19.1 | 7.21 | 19.9 | 7.37 | 129 | 18.7
AUUACCCUGGGCAUCGAGAGA [Fam2.1 aminoacylation ribozyme variant] | 0.749 | 0.74 | 0.914 | 0.802 | 0.489 | 0.642
CUACAUCAAACAAUCGGUCAG [Fam1A.1 aminoacylation ribozyme variant] | 0.56 | 0.714 | 0.759 | 0.629 | 0.912 | 0.586
CCAUACGUCAAGCAAUCGGUC [Fam1B.1 aminoacylation ribozyme variant] | 1.34 | 1.12 | 1.03 | 1.04 | 0.88 | 1.16
AUUGACGUAGGUCAUCGGGUG [Fam2.2 aminoacylation ribozyme variant] | 3.27 | 3.22 | 4.18 | 2.26 | 30.5 | 4.06
AAGUUUGCUAACAGUCGCAUG [Fam3.1 aminoacylation ribozyme variant] | 0.89 | 0.899 | 0.804 | 0.963 | 0.642 | 1.11
AUUACCCUGUUCAUCGAGUGG [Fam2.1 aminoacylation ribozyme variant] | 1.25 | 1.29 | 1.03 | 1.08 | 0.962 | 1.48
CUACUUCAGACAAUCGGUAUG [Fam1A.1 aminoacylation ribozyme variant] | 0.717 | 0.704 | 0.636 | 0.719 | 0.586 | 0.529
AAGUUGGCUACUAGUCGCAAG [Fam3.1 aminoacylation ribozyme variant] | 1.86 | 1.76 | 1.2 | 1.65 | 1.58 | 1.42
AUGCACCUACGUCAUCGGGUG [Fam2.2 aminoacylation ribozyme variant] | 7.54 | 4.21 | 7.02 | 3.57 | 60.7 | 6.56
CCUCACUUCAACCAAUCGGUC [Fam1B.1 aminoacylation ribozyme variant] | 1.84 | 1.27 | 1.35 | 1.28 | 57.5 | 27.6
AAGUUUGCGAAUAGUCGCUAG [Fam3.1 aminoacylation ribozyme variant] | 0.918 | 1 | 1.45 | 1.38 | 3.9 | 1.4
CCACACUUUAAGCCAUCGGUC [Fam1B.1 aminoacylation ribozyme variant] | 0.755 | 0.879 | 0.743 | 0.964 | 0.541 | 0.783
